Laboratory results as given in the supplement of paper PMC9112550, “Optimization of the antimicrobial peptide Bac7 by deep mutational scanning” (BMC Biology, 2022).

These sequences were tested on Escherichia coli TOP10 (assay: shrunken log2 fold change of peptide-encoding DNA abundance (4.5 h post-induction vs induction); higher = less antimicrobial activity (less host growth inhibition)). Conditions: time post-induction: 4.5 h; library: site-saturation at positions 5, 18, 19, 20.
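Further: peptides expressed intracellularly from a pBAD plasmid library in pooled LB shake-flask culture, induced with 0.3% L-arabinose, DNA abundance read by NGS, three biological replicates, DESeq2 with apeglm shrinkage.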

Row | Sequence | shrunken log2 fold change
1 | RRIRIRPPRLPRPRPRPMPMPRP | -0.0159
2 | RRIRPRPPRLPRPRPRPVPTPRP | 0.424
3 | RRIRIRPPRLPRPRPRPHLQPRP | -0.343
4 | RRIRARPPRLPRPRPRPWQCPRP | -0.197
5 | RRIRCRPPRLPRPRPRPPADPRP | 0.95
6 | RRIRNRPPRLPRPRPRPTEVPRP | -0.268
7 | RRIRRRPPRLPRPRPRPQDRPRP | 0.0852
8 | RRIRCRPPRLPRPRPRPAVKPRP | -0.132
9 | RRIRWRPPRLPRPRPRPVGFPRP | 0.558
10 | RRIRTRPPRLPRPRPRPTSVPRP | 0.0486
11 | RRIRRRPPRLPRPRPRPMGVPRP | 0.324
12 | RRIRSRPPRLPRPRPRPRTCPRP | 0.0915
13 | RRIRNRPPRLPRPRPRPSTWPRP | -0.332
14 | RRIRHRPPRLPRPRPRPAFKPRP | -0.0994
15 | RRIRERPPRLPRPRPRPEFLPRP | 0.26
16 | RRIRVRPPRLPRPRPRPCGDPRP | -0.18
17 | RRIRARPPRLPRPRPRPKPMPRP | 0.831
18 | RRIRSRPPRLPRPRPRPINDPRP | -0.113
19 | RRIRRRPPRLPRPRPRPMAAPRP | 1.15
20 | RRIRFRPPRLPRPRPRPQVPPRP | -0.144
21 | RRIRSRPPRLPRPRPRPNSNPRP | -0.857
22 | RRIRVRPPRLPRPRPRPVPDPRP | -0.103
23 | RRIRMRPPRLPRPRPRPVSKPRP | 0.0965
24 | RRIRSRPPRLPRPRPRPDKLPRP | -0.266
25 | RRIRYRPPRLPRPRPRPYDDPRP | -0.129

Row | Sequence | shrunken log2 fold change
26 | RRIRLRPPRLPRPRPRPNCKPRP | -0.143
27 | RRIRPRPPRLPRPRPRPDNPPRP | -0.00669
28 | RRIRDRPPRLPRPRPRPKHYPRP | -0.491
29 | RRIRCRPPRLPRPRPRPKKTPRP | -0.142
30 | RRIRRRPPRLPRPRPRPENPPRP | 0.541
31 | RRIRNRPPRLPRPRPRPDTDPRP | 0.0251
32 | RRIRGRPPRLPRPRPRPRHEPRP | 0.604
33 | RRIRQRPPRLPRPRPRPAVTPRP | 0.167
34 | RRIRQRPPRLPRPRPRPMMQPRP | -0.313
35 | RRIRMRPPRLPRPRPRPMVTPRP | 0.131
36 | RRIRQRPPRLPRPRPRPGCWPRP | 0.548
37 | RRIRPRPPRLPRPRPRPRQGPRP | 0.236
38 | RRIRERPPRLPRPRPRPTEPPRP | 0.0207
39 | RRIRQRPPRLPRPRPRPEMPPRP | 0.188
40 | RRIRERPPRLPRPRPRPMNDPRP | -0.0199
41 | RRIRDRPPRLPRPRPRPVSIPRP | -0.105
42 | RRIRNRPPRLPRPRPRPTPYPRP | -0.243
43 | RRIRDRPPRLPRPRPRPPKQPRP | -0.0537
44 | RRIRDRPPRLPRPRPRPHYQPRP | 0.0231
45 | RRIRDRPPRLPRPRPRPACYPRP | -0.142
46 | RRIRHRPPRLPRPRPRPQKTPRP | 0.00246
47 | RRIRKRPPRLPRPRPRPAVSPRP | 0.0687
48 | RRIRKRPPRLPRPRPRPTNQPRP | 0.289
49 | RRIRWRPPRLPRPRPRPHVTPRP | -0.264
50 | RRIRRRPPRLPRPRPRPWYGPRP | -0.263

Row | Sequence | shrunken log2 fold change
51 | RRIRFRPPRLPRPRPRPKPWPRP | 0.489
52 | RRIRQRPPRLPRPRPRPKWCPRP | -0.0936
53 | RRIRSRPPRLPRPRPRPDERPRP | 0.1
54 | RRIRMRPPRLPRPRPRPEDIPRP | -0.0245
55 | RRIRGRPPRLPRPRPRPFHVPRP | -0.0412
56 | RRIRMRPPRLPRPRPRPKAGPRP | 1.3
57 | RRIRHRPPRLPRPRPRPAIGPRP | -0.0264
58 | RRIRIRPPRLPRPRPRPTTMPRP | -0.394
59 | RRIRKRPPRLPRPRPRPHARPRP | 0.709
60 | RRIRSRPPRLPRPRPRPPLHPRP | -0.00448
61 | RRIRQRPPRLPRPRPRPNQCPRP | 0.0304
62 | RRIRERPPRLPRPRPRPGWKPRP | 0.015
63 | RRIRCRPPRLPRPRPRPFKHPRP | -0.272
64 | RRIRWRPPRLPRPRPRPPQVPRP | 0.35
65 | RRIRERPPRLPRPRPRPAMAPRP | 0.631
66 | RRIRQRPPRLPRPRPRPPWGPRP | 0.242
67 | RRIRQRPPRLPRPRPRPPFQPRP | 0.0422
68 | RRIRERPPRLPRPRPRPYYWPRP | -0.192
69 | RRIRARPPRLPRPRPRPCHSPRP | 0.0213
70 | RRIRRRPPRLPRPRPRPIGYPRP | 0.0143
71 | RRIRKRPPRLPRPRPRPSDPPRP | 0.0131
72 | RRIRNRPPRLPRPRPRPDWRPRP | -0.158
73 | RRIRYRPPRLPRPRPRPHYNPRP | -1.18
74 | RRIRDRPPRLPRPRPRPMDRPRP | -0.01
75 | RRIRKRPPRLPRPRPRPCSCPRP | 0.018

Row | Sequence | shrunken log2 fold change
76 | RRIRSRPPRLPRPRPRPAWKPRP | 0.186
77 | RRIRKRPPRLPRPRPRPCVTPRP | 0.0632
78 | RRIRRRPPRLPRPRPRPNNVPRP | -0.312
79 | RRIRGRPPRLPRPRPRPKFYPRP | -0.278
80 | RRIRRRPPRLPRPRPRPECNPRP | 0.791
81 | RRIRLRPPRLPRPRPRPQGSPRP | -0.0921
82 | RRIRKRPPRLPRPRPRPSYVPRP | -0.294
83 | RRIRMRPPRLPRPRPRPVWSPRP | 0.709
84 | RRIRFRPPRLPRPRPRPSNWPRP | -0.284
85 | RRIRKRPPRLPRPRPRPQWVPRP | 0.0548
86 | RRIRQRPPRLPRPRPRPWWYPRP | -0.0791
87 | RRIRIRPPRLPRPRPRPITDPRP | -0.0192
88 | RRIRDRPPRLPRPRPRPCVFPRP | 0.37
89 | RRIRDRPPRLPRPRPRPEYKPRP | 0.27
90 | RRIRQRPPRLPRPRPRPAKVPRP | 0.325
91 | RRIRHRPPRLPRPRPRPCPKPRP | 0.03
92 | RRIRQRPPRLPRPRPRPVCQPRP | -0.0856
93 | RRIRSRPPRLPRPRPRPCDWPRP | 0.0154
94 | RRIRIRPPRLPRPRPRPIWGPRP | -0.0934
95 | RRIRCRPPRLPRPRPRPNYQPRP | -0.212
96 | RRIRERPPRLPRPRPRPGVPPRP | 0.149
97 | RRIRVRPPRLPRPRPRPYVHPRP | -0.104
98 | RRIRPRPPRLPRPRPRPNEQPRP | 0.062
99 | RRIRERPPRLPRPRPRPTHCPRP | -0.115
100 | RRIRARPPRLPRPRPRPHILPRP | -0.207

Row | Sequence | shrunken log2 fold change
101 | RRIRERPPRLPRPRPRPCDVPRP | -0.017
102 | RRIRRRPPRLPRPRPRPWPCPRP | 0.133
103 | RRIRHRPPRLPRPRPRPARDPRP | 0.147
104 | RRIRMRPPRLPRPRPRPARGPRP | 1.1
105 | RRIRNRPPRLPRPRPRPFAWPRP | 0.0341
106 | RRIRSRPPRLPRPRPRPPNSPRP | -0.251
107 | RRIRARPPRLPRPRPRPELQPRP | 0.731
108 | RRIRKRPPRLPRPRPRPTIEPRP | 0.236
109 | RRIRSRPPRLPRPRPRPTLVPRP | 0.366
110 | RRIRVRPPRLPRPRPRPCIYPRP | -0.533
111 | RRIRMRPPRLPRPRPRPRIFPRP | 0.011
112 | RRIRCRPPRLPRPRPRPQMIPRP | -1.55
113 | RRIRMRPPRLPRPRPRPYWLPRP | -0.0329
114 | RRIRDRPPRLPRPRPRPADWPRP | 0.305
115 | RRIRDRPPRLPRPRPRPPEDPRP | 0.402
116 | RRIRIRPPRLPRPRPRPVHMPRP | -0.315
117 | RRIRLRPPRLPRPRPRPRTWPRP | 0.111
118 | RRIRQRPPRLPRPRPRPGNPPRP | -0.132
119 | RRIRPRPPRLPRPRPRPNGEPRP | 0.137
120 | RRIRRRPPRLPRPRPRPCSAPRP | 0.34
121 | RRIRTRPPRLPRPRPRPGCKPRP | -0.161
122 | RRIRARPPRLPRPRPRPDGHPRP | 0.0106
123 | RRIRTRPPRLPRPRPRPSNRPRP | -0.0802
124 | RRIRNRPPRLPRPRPRPEIQPRP | -0.0724
125 | RRIRCRPPRLPRPRPRPTRSPRP | 0.643

Row | Sequence | shrunken log2 fold change
126 | RRIRERPPRLPRPRPRPFIGPRP | -0.0528
127 | RRIRKRPPRLPRPRPRPLYSPRP | -0.105
128 | RRIRCRPPRLPRPRPRPKKMPRP | 0.169
129 | RRIRFRPPRLPRPRPRPIANPRP | -0.0564
130 | RRIRCRPPRLPRPRPRPPMRPRP | 0.945
131 | RRIRTRPPRLPRPRPRPMAVPRP | -0.296
132 | RRIRRRPPRLPRPRPRPFAFPRP | 0.0757
133 | RRIRCRPPRLPRPRPRPQECPRP | -0.0139
134 | RRIRLRPPRLPRPRPRPMYWPRP | -0.115
135 | RRIRERPPRLPRPRPRPMSLPRP | 0.0379
136 | RRIRMRPPRLPRPRPRPVRPPRP | 1.76
137 | RRIRCRPPRLPRPRPRPNMRPRP | 0.357
138 | RRIRVRPPRLPRPRPRPELDPRP | 0.183
139 | RRIRSRPPRLPRPRPRPSMTPRP | -0.356
140 | RRIRFRPPRLPRPRPRPFMQPRP | -0.675
141 | RRIRPRPPRLPRPRPRPVQWPRP | 0.151
142 | RRIRKRPPRLPRPRPRPYIQPRP | -0.319
143 | RRIRARPPRLPRPRPRPFNGPRP | 0.0657
144 | RRIRTRPPRLPRPRPRPKMLPRP | -0.204
145 | RRIRQRPPRLPRPRPRPIIKPRP | -0.111
146 | RRIRDRPPRLPRPRPRPFEEPRP | 0.0467
147 | RRIRGRPPRLPRPRPRPSPQPRP | 0.826
148 | RRIRRRPPRLPRPRPRPHGQPRP | 0.194
149 | RRIRTRPPRLPRPRPRPNKFPRP | -0.37
150 | RRIRVRPPRLPRPRPRPNLRPRP | 0.0738
